The data set can be described thus: soluble on expression in E. coli; label from the status in PepcDB or PDB records.
Consider “MSETLIIRFNVGGTPMATLKTTFPVDSIFHKWFVSRTKASPFTSDRDGAYFVDRDPFSFGVVLNYFRLRKAGQLWEACLPKDPDRLAMLTQEADFFLLPQLRDQAICMLQLCSNKNDSNYINEMLAKSTSCPQGFDKKEEEDEEDF”, for which the “soluble on expression in E. coli” value is “not soluble”.
For “MEMKQKLLTDIELDVHELKLLMNTFSKEPTQTLSELLKRSILRMQERLEQLSEEISAVPVEASPSPVAEAESEAPIVEEQAPVIEEVECPVIEEKVVEENEATAPGEDEPVIVQEPQTVVEEAVIEEPVVEDEMEEKEAEDESEDDESLLIEEPKTAVLGESIKMAAGLRHSISLNDSFRFSREIFGGDPELMNRVIEQISVMSSYKTAVAFLASKVSVNEENEAMIDFLELLKKYFNQSA”, the “soluble on expression in E. coli” value is reported as “soluble”.
Take “MSCSSSSMLFLVLIATTVLIAESRVFYNRFDGGLSSDRFMEQKRDGAEASYDYDANQVIRNTMKRNRQCLLNAGLSQGCDFSDLLHAQTQARKFMSFAGPGK”: the “soluble on expression in E. coli” value is recorded as “not soluble”.
For the sequence “LFQKLHQSLQVGEKEEDMYELLISSSMTTVMADAAWLEIRDNKGGLKAFQNSNIDEYDVFEIKKALRKNQVNISSEPQYIKDILSYPHTEKIKHLDYKSFLLIPLTSNNQLIGTLVLLKNLNDGFDKEMVDIIFTFVSQASISIKNFRLMSDAIQTERYQEELKIAKD”, the “soluble on expression in E. coli” value is recorded as “not soluble”.
Under “MILTPPDTPFFLRNGNADTIAAKFLQRPAPAYRRELLPDSTGKTKVAYDFSDGISPDAPLVVLFHGLEGSSRSHYAVELMLAVRDRGWHGVVVHFRSCGGIANTAPVFYHLGDTAEIAFTLDTFAARYREIYAVGVSLGGNALAKYLGEQGKKALPQAAAVISAPVDAEAAGRRFDSGITRLLYTRYFLRTLIPKAKSLQGFQTAFAAGCKTLGEFDDRFTAPLHGFADRHDYYRQTSCKPLLKHVAKPLLLLNAVNDPFLPPEALPRADEVSEAVTLFQPAYGGHVGFVSSTGGRLHLQWLPQTVLSYFDSFRTNRR” stands “not soluble”; under “MGDNGTGIECIGLPPGFSIDYYAEGVEGARSMALSPEGTLFAGSRGAGKLYAMTDRNGDNKADDVLVIAEGLDMPNGVAFRNGSLYVAEISRVLRYDDIEARLENPPDPAVVRGDFPADRSHGWKYIKFGPDGKLYVPVGMPCNVCNLEEEEERYGTMMRMEPDGSQPEIFARGIRNTVGFAWNPETGELWFTDNGRDWLGDDLPPDELNRAPVPGMHFGFPYCHGKDTPDPEYGEFRNCSEFTAPEVELGPHVAALGMTFYNGSMFPEEYRNQIFIAEHGSWNRKIPIGYRVSLVRLENGTPVSYEPFADGWLQGLASWGRPVDVLVMPDGALLVSDDKNNAIYRISLEHHHHHH”, “not soluble”; under “MMRNFGREFLEETSIFENKTCLIWRDREISFKEFHEYIGKWKNVLDEQKTKTTNPLRIALFCTNSPDILAIIVAGQLSGVTVIPLNPSYKKYEIDEYISKSIANFIIVSDDVDLDKFEEREVNLISELFTSNVTPSSTASTPENQGVIVFFSSGTTGPPKQFEYTQRILCSQIDQIKAIRSDPRFFSPSTDDICYGVLPFFHAGGLITILSMIFSGCTVLINERWNEHEFLANCQNYKVSVLFLVPPVLNFFANHPLVSSYDLSALKTIYVGAAASPPENFAKVAERLPELENLIQLYGTSECGVLLCSTGKGKASGKTVGWPFPFVELKINPENNEIFVKSATAMEEGFMETGDLGCLSFKTIELMIVGRSKEMMKIRGWQVNPNEVEDVIRKVEGVLDCAVYQNQEKLTAKIIGNPDSKADIFKIVKDNLASYKQLDDVIFVEELPRNPSGKLVRHMLH”, “not soluble”.
As for “MGSDKIHHHHHHMITDPQIKACIHQHHLFSALGEEELCRLLGQAAKITLAAHENLFYQGDLAKRFYLVIQGHLQLYRTSLQGQDKVIEVVREGRTFAEALMFSRQASYPVSAQAVSHCTLVSFDSEGYLAMLRGNPDACIAIMAEMSVRLRKDINEVELLSVQNAQSRLLLFLLRNMQKIGDNQGRVELDIPKRVLASRLSIQPETFSRLMKKMVTEGIIGESRGAIDIKDLAKLYTSANMPLANQAIQTSEPLIRSGKAPCQQIAIEMV”, the entry is “not soluble”; as for “MGSDKIHHHHHHMAKSDLIVGLDIGTTKICCVVGEPTEEGIDIVGIGTSPSTGLRKGVVVNIEQTVQSIKKALEEAELMAGCEIRSVYAGIAGSHIKGANSDGVIAVKGGEVAPRDVERVLDAAKALNIPMDREVIHILPQEYIVDEQRGIADPLGMAGVRLEVKVHIVTGAVASAQNIVRSCHRSGLDVSDIVLEALASSKAVLTEEEREIGVALVDLGGGTTDIAVFANDSIKHTGVLALGGQNLTNDIAFGLRTPMASAEKIKIKYGCAMAEMVRDDEGIEVASVGDREPRRLSRQVLAEICEPRMEEILSLVDQELVRYGFKNMIGAGVVLTGGTALIEGCQELGEQIFNLPTRIGYPRNVGGLKDVVNSPKFATAVGLLCYGAEKEGLELKFRIRDGNMFNRVLSRMRKWFSDIS”, “not soluble”; as for “GPGSMIQIIAPRGPLQEMLLLELQGKVVIPPKLLEEERERQRIPNSSEEEVKACSQVTGGKRLREDGECGVNVDTNQVVEVPLGCVVWDSRNETRCSLQIGTVEVSGSYGKRREPLLVLKRCVVGDKTADAEGAVACEYSESSGSQCCLLQEWLQEHPEELTLDATVRGATVPRKVYELVGVVERYIHLNSKPLRRFV”, “not soluble”.
Under “MTTNNDFYFALLRISILQLLKAQGFDRARPSLVDVMTDLYAKFLSLLASEVSSIAQARCDQDDTIALQDITLALENLGIVKPTNVLDVYDENSELSSSRGMEKFKDWCIYSTQLTDARITALPTVELLQSEEKESDPLSAIPDYLNQLLQNKGAKQKLETKNRKTELIEDLINNNGLDDWIKLVIARQRINMIERASKKESQNVPALPHIAGYKSSILSRHHHTTITNEDRMPSAMTPRDEDALTEIQENPFVTSKLPIMRKENRLENITLSFEDEELESLGEVEGPNQKSQENNNEESFKENNKSLTESPHGDDRDISMFQFDSNVDTKWAEQEDMDSTFQRRTSLDYGGYF” stands “not soluble”.
In the case of “GMLSNLESSIQSPKSGEYQCLAALNLYDSPECTSLATQAAVGRHLQVTSNQQGAAVEVCLCEDDYPGWLSLGDLGLLKPATVLYQAKSFSESEIKKLLPGAIAFTQKAMQQSNYYLWGGTVGPNYDCSGLMQAAFVSVGIWLPRDAYQQEAFTQAITIDELAPGDLVFFGTPVKATHVGLYLGDGCYIHSSGKAQGRDGIGIDILSEQGDVVSRSYYQQLRGAGRVVKSYKPQRH”, the “soluble on expression in E. coli” value is recorded as “soluble”.
As to “DLREVLDFMLKDEVSKLRKLLVKIKTKKIAEVEYENVVKALKLFKDNYEINEYLMDENTKEFLIKRNILFLNPVEEILKPQSYLVWNAIKRVLQNINDF”, the “soluble on expression in E. coli” value is “soluble”.
As to “MTLLPHLATRLFGVPLAIDRPKLDVILSVLGPRVGLAGLAPPGDYTPPERNPVRGHAQIAVIPIHGTLVRRTVGLEAESGLASYTAIGEQLDAALADPGIAAILLDVDSPGGESGGVFDLADRIRVAAAIKPVWAAANDMAFSAAYALACAASRVFVSRTGGVGSIGVIAMHVDQSVKDAKDGVRYTAVFAGARKNDLNPHEPITDEAQAQLQAEVSRIYRLFVATVGSYRGLSAEAVTATEAGLFFGQDAVAAGLADAVGTFDDALAQLTASLSVPAPVASARTPSLNLQMDCSMNTQPDPAAVSVPAADAIGTTAQPPVVASPPAASVASHTDAVEIAQLCTLAGRTDLIAGFLEARATPERVRSQLLAARAEASPEIASRIDPHAQAVSADASHPASPRNPLLQAVKKRLGIQLEHHHHHH”, the “soluble on expression in E. coli” value is on record as “soluble”.
Under “MTGVYADAVLVSVTVGDTVTLHTAGVKNLQPADVKWYFNDIRIAQLDGDLRFNCTDIQCNDRTEIFIDRLRLDRKTGALTIVNITNTHSGVYQLVVIGGGGTIFNVTVHDDPATHYNQVKKNQGESVTFNPGVRRDLIVVLKCLLNNTLIAEISVNQSQICADVQCKERFTDRLKLDNESASLTITNTNITDSGNYTSVILISSDRRFSITREKRFSLTVTSLSSSQPSGGAIAGIVVMLLLLL” stands “not soluble”; under “MGSDKIHHHHHHMSGFLAVKFPVKEASVADQQDFLGRFDAMSSKATATVIAHYSSSFTLASKLLSPKIRRDIEALYAMVRVADEVVDGAAAAAGCAPDAVAEILDNYERQVLLSLSVPFHTDPVIHAFGNTARKCGFEQAHIVAFFDSMRRDLSQTSYDPTQLDEYIYGSAEVIGLMCLKIFLQDSTASPQDRATMEHGARRLGAAFQKVNFLRDLAEDREGLGRSYLPVFTEEMRDEIVTDIREDLDAARLSIPLLPFGARTGVRAATDLYGCLVDNLESASLEDLKNGRIRVPSMKKASLATKAMWKEVFQK”, “not soluble”; under “MGSDKIHHHHHHMKVSGGEVPPFFKEGFFFTSEELTHLINVCSSTSAIISVLKDSKYRRSLVLYLKRPLSKDALLLIQTLLTTLEREDLSFGVKELEYMAYHDPLTGLPNRRYFFELGNRYLDLAKREGKKVFVLFVDLAGFKAINDTYGHLSGDEVLKTVSKRILDRVRRSDVVARYGGDEFTILLYDMKEEYLKSLLERILSTFREPVRVENKHLSVTPNIGVARFPEDGENLEELLKVADMRMYKAKEMKVPYFSLS”, “not soluble”.
As for “MGHHHHHHSHMLRVLLSAQTSPARLSGLLLIPPVQPCCLGPSKWGDRPVGGGPSAGPAQGLQRLLEQAKSPGELLRWLGQNPSKVRAHHYSVALRRLGQLLGSRPRPPPVEQVTLQDLSQLIIRNCPSFDIHTIHVCLHLAVLLGGTEVGPALWATELPAPGTAVYALP”, the entry is “not soluble”.
Turning to “AHHHHHHGSKVIASAPAKVILFGEHSVVYGKPAIAAAIDLRTFVEAELIREKKIRIEAHDIKVPGLTVSFSENEIYFETDYGKAAEVLSYVREAINLVLEEADKKNVGIKVSITSQIPVGAGLGSSAAVAVATIGAVSKLLGLELSKEEIAKMGHKTELLVQGASSGIDPTVSAIGGFIFYEKGKFEHLPFMELPIVVGYTGSSGPTKELVAMVRKRYEEMPELIVPILEAMGKVVEKAKDVILSNVDKEEKFERLGVLMNINHGLLDALGVSTKKLSELVYAARVAGALGAKITGAGGGGCMYALAPNKQREVATAIRIAGGTPMITEISREGLKIEEVIK”, the “soluble on expression in E. coli” value is reported as “not soluble”.
“MRLDVEQTSKLDRVRADYNVHYWSQGFYGIDDQGEMYVSPRSDNAHQIQLSKIVKQLEERQLNVPVLVRFPQILHQRVHSICDAFNQAIEEYQYPNKYLLVYPIKVNQQREVVDEILASQAQLETKQLGLEAGSKPELLAVLAMAQHASSVIVCNGYKDREYIRLALIGEKLGHKVFIVLEKMSELDLVLREAKSLGVTPRLGIRIRLASQGAGKWQASGGEKSKFGLSASQVLNVISRLKKENQLDTLQLVHFHLGSQMANIRDVRNGVNESARFYCELRTLGANITYFDVGGGLAIDYDGTRSQSSNSMNYGLVEYARNIVNTVGDVCKDYKQPMPVIISESGRSLTAHHAVLISNVIGTETYKPETVTEPEEDFPLLLNNMWRSWLNLHNGTDARALIEIYNDTQSDLAEVHSQFATGVLTLEHRAWAEQTSLRIYYELNRLMSTKNRFHRPILDELSERLADKFFVNFSLFQSLPDSWGIDQVFPVLPLSGLQNAADRRAVMLDITCDSDGAIDAYVDGQGIESTLPVPAWNEDEPYLMGFFLVGAYQEILGDMHNLFGDTHSVVVNVGDQGEINIDFINEGDTVEDMMRYVHIDVDQIRKNYHSLVSQRVDQEEQQQILAELEQGLSGYTYLEDFLEHHHHHH”: the “soluble on expression in E. coli” value is given as “soluble”.

The values above are taken from the DeepSol protein solubility set.
